Assay: yeast display, Sf9 membrane polyspecificity reagent, FACS + sequencing; frameworks hold sequencing errors
Summary of the method: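 A synthetic nanobody library was expressed on Saccharomyces cerevisiae BJ5465 by galactose induction for 36–48 hours. The library was stained for 1 hour at 4 °C with 10% biotinylated, detergent-solubilized Sf9 membrane reagent and enriched with streptavidin microbeads before FACS. Low and high (top ~1%) gates were set on anti-HA fluorescence for expression and streptavidin fluorescence for reagent binding, and each polyreactivity label reflects the gate of origin.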

Sequence	polyreactivity (PSR sort gate)
QVQLVESGGGLVQAGGSLRLSCAASGRILLTYAMGWYRQAPGKERELVAAISSDSRTYYADSVKGLFTISRDNAKNTVYLQMNSLKPEDTAVYYCVRRRYKYDYWGQGTQVTVSS	low polyreactivity
QVQLVESGGGLVQAGGSLRLSCAASGRILLYNAMGWYRQAPGKERELVAAISRSGGSTYYADSVKGRFTISRDNAKNTVYLQMNSLKPEDTAVYYCAAQHGYPRYYYWGQGTQVTVSS	high polyreactivity
QVQLVESGGGLVQAGGSLRLSCAASGRILNTYTMGWYRQAPGKERELVAAITSRGGSTYYADSVKGRFTISRDNAKNTVYLQMNSLKPEDTAVYYCAAGYPYDYWGQGTQVTVSS	high polyreactivity
QVQLVESGGGLVQAGGSLRLSCAASGRILPGNAMGWYRQAPGKERELVATITNGGRTYYADSVKGRFAISRDNAKNTVYLQMNSLKPVDTAVYYCAAVVVRFIYVYFEFEWGQGTQVTVSS	low polyreactivity
QVQLVESGGGLVQAGGSLRLSCAASGRILPLYAMGWYRQAPGKERELVADITGSDGSTYYADSVKGRFTISRDNAKNTVYLQMNSLKPEDTAVYYCATDAIGRTPSDPWDYYYWGQGTQVTVSS	low polyreactivity
QVQLVESGGGLVQAGGSLRLSCAASGRILPWYAMGWYRQEPGKERELVARIRSTDSSNYADSVKGRFTISRDNAKNTVYLQMNSLKPEDTAFYYCAKVQWGFPYAWLGSDYWGQGTQVTVSS	low polyreactivity
QVQLVESGGGLVQAGGSLRLSCAASGRILRSNAMGWYRQAPVKERELVATISQRGGSTYADSVKGRFTISRDNAKNTVYLQMNSLKPEDTAVYYCNVGVPIGGFMSYWGGDYWGQGTQVTVSS	low polyreactivity
QVQLVESGGGLVQAGGSLRLSCAASGRILRVYAMGWYRQAPGKERELVAAISSGGSTNYADSVKGRFTISRDNAKNTVYLQMNSLKPEDTAVYDCAATVRGVGYRYYYWGQGTQVTVSS	high polyreactivity
QVQLVESGGGLVQAGGSLRLSCAASGRILRYNAMGWYRQAAGKERELVAAISSGGSTYADSVKGRFTISRDNAKNTVYLQMNSLKPDDTAVYYCNAPSVGAAFDYWGQGTQVTVSS	high polyreactivity
QVQLVESGGGLVQAGGSLRLSCAASGRILTTNAMGRYRQAPGKERELVATISTGSGRTYYADSVKGRFTISRDNAKNTVYLQMNSLKPEDTAVYYCAASRTLRKHRYEYWGQGTQVTVSS	high polyreactivity
QVQLVESGGGLVQAGGSLRLSCAASGRILTYYAMGWYRPAPGKERELVAAISWRAGSTYYADSVKGRFTISRDNAKNTVYLQMNSLKPEDTAVYYCAADLPYWYNRKPIFPYYYWGQGTQVTVSS	high polyreactivity
QVQLVESGGGLVQAGGSLRLSCAASGRILVGYAMGWYRQAPGKERELVAAITGSGASTYYADSVKGRFKISRDNAKNTVYLQMNSLKPEDTAVYYCAASYFNYGVGIWYDYWGQGTQVTVSS	high polyreactivity
QVQLVESGGGLVQAGGSLRLSCAASGRILVSYAMGGYRQAPGKERELVAAISRSGGSTYYADSVKGRFTISLDTAKNTVYLQMNSLKPEDTAVYYCNVYRFSRYDYWGQGTLVTVSS	high polyreactivity
QVQLVESGGGLVQAGGSLRLSCAASGRILWDYAMGWYRQAPGKERELVAAISTSSGSTYYADSVKGRFTISRDNAKNTVKLQMNSLKPEHTAVYYCAADNDYSPPWFEYWGQGTQVTVSS	low polyreactivity
QVQLVESGGGLVQAGGSLRLSCAASGRILWWYAMGWYRQAPRKEREFFAAITTSGGSTYYADSVKGRFTISRDNAKNTVYLQMTSLKPEDNAVYYCAADLFVRNLVYTYDYDYWGQGTQVTVSA	high polyreactivity
QVQLVESGGGLVQAGGSLRLSCAASGRILWYYTMGWYRQAPGKERELVAAISSGGRTHYADSVKGRFTISRDNAKNTVYLQMNSLKPVDTAVYYCAAKYGWGRFNYDYWGQGTQVTVSS	high polyreactivity

Sequence	polyreactivity (PSR sort gate)
QVQLVESGGGLVQAGGSLRLSCAASGRILYAYAMGWYRQAPGKERELVAAITWGGGNTYYADSVKGRFTISRDNAKNTVYLQMNSLKPEDTAVYYCAADASTVYSTVPEYDFWGQGTQVTVSS	low polyreactivity
QVQLVESGGGLVQAGGSLRLSCAASGRILYGYAMGWYRQAPGKERELVAGISWRGGSTYYADSVKGRFTISRDNAKNTVYLQMNSLKPEDTAVYYCAARGWPSQVPVRVFRYDYWGQGTQVTVSS	high polyreactivity
QVQLVESGGGLVQAGGSLRLSCAASGRILYGYAMGWYRQAPGKERELVASITWSGGSTYADSVKGRFTISRDNAKNTVYLQMNSLKPEDTAVYYCATRRGPKWQWLTYGYWGQGTKVTVSS	low polyreactivity
QVQLVESGGGLVQAGGSLRLSCAASGRILYKYAMGWYRQAPGKERELVAAISRRGGSTFYADSVKGRFTISRDNAKNTVYLQMNSLKPEDTAVYYCAAGSTRYAGWTYNYWGQGTQVTVSS	high polyreactivity
QVQLVESGGGLVQAGGSLRLSCAASGRILYKYAMGWYRQAPGKERELVAAISWRGTTTYYADSVKGRFTISRDNAKNTVYLQMNSLKPEDTAVYYGAIDRSYGYFSRPVSQYDYWGQGTQVTVSS	high polyreactivity
QVQLVESGGGLVQAGGSLRLSCAASGRILYPYAMGWYRQAPGTERELVAAITFRGGNTYYADSVKGRFTISRDNAKNTVYLQMNSLKPEDTAVYYCAKRGGYWHKFDYWGQGTQVTVSS	high polyreactivity
QVQLVESGGGLVQAGGSLRLSCAASGRILYQYAMAWYRQAPGKERELVASISGRSGRTRYADSVKGRFTISRDNAKNTVYLQMNSLKPEDTAVYYCNAGSSVLKYDYWGQGTQVTVSS	low polyreactivity
QVQLVESGGGLVQAGGSLRLSCAASGRILYRNAMGWYRQAPGKERELVAAITTRGTSTYYADSVKGRFTISRDNAKNTVYLQMNSLKPEDTAVYYCAADSWFSYRGPLYYWGQGTQVTVSS	high polyreactivity
QVQLVESGGGLVQAGGSLRLSCAASGRILYRYAMGWYRQAPGKERELVAAITWRGGTTYYADSVKGRFTISRDNAKNTVYLQMNSLKPEDTAVYYCNADWWRTLESDYWGQGTQVTVSS	low polyreactivity
QVQLVESGGGLVQAGGSLRLSCAASGRILYSYAMGWYRQAPGKERELVASISLSGGRTYADSVKGRFTISRDNAKNTVYLQMNSLKPEDTAVYYCNASIRTSRYLWQFDYWGQGTQVTVSS	high polyreactivity
QVQLVESGGGLVQAGGSLRLSCAASGRILYVNTMGWYRQAPGKERELVAGITSRVGSTYYADSVKGRFTISRDNAKNTVYLQMNSLKPEDTAVYYCNARDKFYVPSLYAYDYWGQGTQVTVSS	low polyreactivity
QVQLVESGGGLVQAGGSLRLSCAASGRILYVYAMGWYIQAPGKERELVAAITSGGSTHYADSVKGRFTISRDNAKNTVYLQMNSLKPEDTAVYYCAAYTLRNRGGFNYWGQGTQVTVSS	high polyreactivity
QVQLVESGGGLVQAGGSLRLSCAASGRILYYYAMGWYRQAPGKERELVAAITSGGSTYADSVKGRFTISRDNAKNTVYLQMNSLKPEDTAVYYCNARPVYGSRFYSAVRMEYWGQGTQVTVSS	low polyreactivity
QVQLVESGGGLVQAGGSLRLSCAASGRIRRYYAMGWYRPAPGKEMELVAVITSSDGSTYYADSVKGRFTISRDNAKTTVYLQMNSLKPEDTAVDYCAAAPLWRLDSWSDPYRRYDYWGQGTQVTVSS	low polyreactivity
QVQLVESGGGLVQAGGSLRLSCAASGRISDVYAMGWYRQAPGKERELVAVISWRGGTTRYADSVKGRFTISRDNAKNTVYLQMNSLKAEDTAVFYCAAKTVLWGQGTQVTVSS	high polyreactivity
QVQLVESGGGLVQAGGSLRLSCAASGRISESNDMGWYRQAPGKERELVAAISSSGGSTYYADSVKGRFTISRDNAKNTVYLQMNSLKPVDTAVYYCNAVYYRTVLKIGVYEYDYWGQGTQVTVSS	low polyreactivity
